Measurements as given in patent US20170137467A1 (CHROMOTEK, published 2017).
Square brackets hold non-standard residues; d marks the D form. GABA = NCCCC(=O)O

Key:
Experiment in all cases: peptide library pulldown on immobilized Nb, LC-MS of supernatant; ratio vs GFP-Nb control (1 = not captured, 0 = captured)
[1] = biological target: T1, BC2T S8A library peptide (human)
T1 construct: also called BC2TS8X: A
T1 peptide: Ac-PDRKAAVAHWQQ-NH2
Summary of the method: (§1)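 Unbound peptide left in supernatant after 1 h pulldown in PBS/0.01% CHAPS measured by reversed-phase LC-MS (8–30% eluent B gradient, 20 min).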

[2] = biological target: T2, BC2T H9S library peptide (human)
T2 peptide: Ac-PDRKAAVSSWQQ-NH2
Summary of the method: as §1

[3] = biological target: T3, BC2T Q12T library peptide (human)
T3 peptide: Ac-PDRKAAVSHWQT-NH2
Summary of the method: as §1

[4] = biological target: T4, BC2T Q11M library peptide (human)
T4 peptide: Ac-PDRKAAVSHWMQ-NH2
Summary of the method: as §1

[5] = biological target: T5, BC2T Q12P library peptide (human)
T5 peptide: Ac-PDRKAAVSHWQP-NH2
Summary of the method: as §1

[6] = biological target: T6, BC2T W10A library peptide (human)
T6 construct: also called BC2TW10X: A
T6 peptide: Ac-PDRKAAVSHAQQ-NH2
Summary of the method: as §1

[7] = biological target: T7, BC2T S8H library peptide (human)
T7 construct: also called BC2TS8X: H
T7 peptide: Ac-PDRKAAVHHWQQ-NH2
Summary of the method: as §1

[8] = biological target: T8, BC2T W10G library peptide (human)
T8 construct: also called BC2TW10X: G
T8 peptide: Ac-PDRKAAVSHGQQ-NH2
Summary of the method: as §1

[9] = biological target: T9, BC2T Q11(I/L) library peptide, version 1 (N-terminal acetyl, C-terminal amide)
T9 construct: Ile and Leu versions are isobaric; two versions resolved but not assigned; also called I/L1
Summary of the method: as §1

[10] = biological target: T10, BC2T S8R library peptide (human)
T10 construct: also called BC2TS8X: R
T10 peptide: Ac-PDRKAAVRHWQQ-NH2
Summary of the method: as §1

[11] = biological target: T11, BC2T S8V library peptide (human)
T11 construct: also called BC2TS8X: V
T11 peptide: Ac-PDRKAAVVHWQQ-NH2
Summary of the method: as §1

[12] = biological target: T12, BC2T Q11N library peptide (human)
T12 peptide: Ac-PDRKAAVSHWNQ-NH2
Summary of the method: as §1

[13] = biological target: T13, BC2T W10(I/L) library peptide, version 2 (N-terminal acetyl, C-terminal amide)
T13 construct: Ile and Leu versions are isobaric; two versions resolved but not assigned; also called BC2TW10X: I/L2
Summary of the method: as §1

[14] = biological target: T14, BC2T W10Y library peptide (human)
T14 construct: also called BC2TW10X: Y
T14 peptide: Ac-PDRKAAVSHYQQ-NH2
Summary of the method: as §1

[15] = biological target: T15, BC2T S8T library peptide (human)
T15 construct: also called BC2TS8X: T
T15 peptide: Ac-PDRKAAVTHWQQ-NH2
Summary of the method: as §1

[16] = biological target: T16, BC2T S8W library peptide (human)
T16 construct: also called BC2TS8X: W
T16 peptide: Ac-PDRKAAVWHWQQ-NH2
Summary of the method: as §1

[17] = biological target: T17, BC2T H9(I/L) library peptide, version 1 (N-terminal acetyl, C-terminal amide)
T17 construct: Ile and Leu versions are isobaric; two versions resolved but not assigned; also called I/L1
Summary of the method: as §1

[18] = biological target: T18, BC2T W10M library peptide (human)
T18 construct: also called BC2TW10X: M
T18 peptide: Ac-PDRKAAVSHMQQ-NH2
Summary of the method: as §1

[19] = biological target: T19, BC2T W10C* library peptide (human, SMILES …)
T19 construct: also called BC2TW10X: C*; C(Abu)
T19 peptide: Ac-PDRKAAVSH[GABA]QQ-NH2
Summary of the method: as §1

ratio [1]: 0.1
ratio [2]: 0.4
ratio [3]: 0.1
ratio [4]: 0.2
ratio [5]: 0.1
ratio [6]: 1.1
ratio [7]: 0.9
ratio [8]: 1.2
ratio [9]: 0.2
ratio [10]: 0.9
ratio [11]: 0.2
ratio [12]: 0.2
ratio [13]: 1
ratio [14]: 1
ratio [15]: 0.1
ratio [16]: 0.9
ratio [17]: 0.4
ratio [18]: 1.1
ratio [19]: 1.1
B1: BC2-Nb(R106E) (VHH)
VHH: QVQLVESGGGLVQPGGSLTLSCTASGFTLDHYDIGWFRQAPGKEREGVSCINNSDDDTYYADSVKGRFTIFMDNAKDTVYLQMNSLKPEDTAIYYCAEARGCKRGEYEYDFWGQGTQVTVSS
notes: Headlock mutant; immobilized on beads in the library pulldown
